Measured values as given in US20120053225.

Experiments:
[1] = target: HA-tagged AKT (wild type), P31749
[2] = target: HA-tagged AKT Y176F mutant, P31749
[3] = target: HA-tagged AKT deletion construct lacking the PH domain, P31749

B1: purified tagged Ack1 expressed in HEK293T cells (protein)
chain: MQPEEGTGWLLELLSEVQLQQYFLRLRDDLNVTRLSHFEYVKNEDLEKIGMGRPGQRRLWEAVKRRKALCKRKSWMSKVFSGKRLEAEFPPHHSQSTFRKTSPAPGGPAGEGPLQSLTCLIGEKDLRLLEKLGDGSFGVVRRGEWDAPSGKTVSVAVKCLKPDVLSQPEAMDDFIREVNAMHSLDHRNLIRLYGVVLTPPMKMVTELAPLGSLLDRLRKHQGHFLLGTLSRYAVQVAEGMGYLESKRFIHRDLAARNLLLATRDLVKIGDFGLMRALPQNDDHYVMQEHRKVPFAWCAPESLKTRTFSHASDTWMFGVTLWEMFTYGQEPWIGLNGSQILHKIDKEGERLPRPEDCPQDIYNVMVQCWAHKPEDRPTFVALRDFLLEAQPTDMRALQDFEEPDKLHIQMNDVITVIEGRAENYWWRGQNTRTLCVGPFPRNVVTSVAGLSAQDISQPLQNSFIHTGHGDSDPRHCWGFPDRIDELYLGNPMDPPDLLSVELSTSRPPQHLGGVKKPTYDPVSEDQDPLSSDFKRLGLRKPGLPRGLWLAKPSARVPGTKASRGSGAEVTLIDFGEEPVVPALRPCAPSLAQLAMDACSLLDETPPQSPTRALPRPLHPTPVVDWDARPLPPPPAYDDVAQDEDDFEICSINSTLVGAGVPAGPSQGQTNYAFVPEQARPPPPLEDNLFLPPQGGGKPPSSAQTAEIFQALQQECMRQLQAPAGSPAPSPSPGGDDKPQVPPRVPIPPRPTRPHVQLSPAPPGEEETSQWPGPASPPRVPPREPLSPQGSRTPSPLVPPGSSPLPPRLSSSPGKTMPTTQSFASDPKYATPQVIQAPGPRAGPCILPIVRDGKKVSSTHYYLLPERPSYLERYQRFLREAQSPEEPTPLPVPLLLPPPSTPAPAAPTATVRPMPQAALDPKANFSTNNSNPGARPPPPRATARLPQRGCPGDGPEAGRPADKIQMAMVHGVTTEECQAALQCHGWSVQRAAQYLKVEQLFGLGLRPRGECHKVLEMFDWNLEQAGCHLLGSWGPAHHKR
- AKT Tyr176-phosphorylation (in vitro phosphorylation of purified AKT by Ack1, immunoblot) [1]: purified Ack1 interacted directly with AKT resulting in AKT Tyr176-phosphorylation

B2: endogenous Ack1 of mouse embryo fibroblasts (protein)
chain: MQPEEGTGWLLELLSEVQLQQYFLRLRDDLNITRLSHFEYVKNEDLEKIGMGRPGQRRLWEAVKRRKAMCKRKSWMSKVFSGKRLEAEFPSQHSQSTFRKPSPTPGSLPGEGTLQSLTCLIGEKDLRLLEKLGDGSFGVVRRGEWDAPAGKTVSVAVKCLKPDVLSQPEAMDDFIREVNAMHSLDHRNLIRLYGVVLTLPMKMVTELAPLGSLLDRLRKHQGHFLLGTLSRYAVQVAEGMAYLESKRFIHRDLAARNLLLATRDLVKIGDFGLMRALPQNDDHYVMQEHRKVPFAWCAPESLKTRTFSHASDTWMFGVTLWEMFTYGQEPWIGLNGSQILHKIDKEGERLPRPEDCPQDIYNVMVQCWAHKPEDRPTFVALRDFLLEAQPTDMRALQDFEEPDKLHIQMNDVITVIEGRAENYWWRGQNTRTLCVGPFPRNVVTSVAGLSAQDISQPLQNSFIHTGHGDSDPRHCWGFPDRIDELYLGNPMDPPDLLSVELSTSRPTQHLGRVKREPPPRPPQPAIFTQKTTYDPVSEDPDPLSSDFKRLGLRKPALPRGLWLAKPSARVPGTKADRSSGGEVTLIDFGEEPVVPTPRPCAPSLAQLAMDACSLLDKTPPQSPTRALPRPLHPTPVVDWDARPLPPPPAYDDVAQDEDDFEVCSINSTLVGAGLPAGPSQGETNYAFVPEQAQMPPALEDNLFLPPQGGGKPPSSVQTAEIFQALQQECMRQLQVPTGQLTPSPTPGGDDKPQVPPRVPIPPRPTRPRVELSPAPSGEEETSRWPGPASPPRVPPREPLSPQGSRTPSPLVPPGSSPLPHRLSSSPGKTMPTTQSFASDPKYATPQVIQAPGPRAGPCILPIVRDGRKVSSTHYYLLPERPPYLERYQRFLREAQSPEEPAALPVPPLLPPPSTPAPAAPTATVRPMPQAAPDPKANFSTNNSNPGARPPSLRAAARLPQRGCPGDGQEAARPADKVQMLQAMVHGVTTEECQAALQSHSWSVQRAAQYLKVEQLFGLGLRPRVECHKVLEMFDWNLEQAGCHLLGSCGPAHHKR
- AKT Tyr/Ser-phosphorylations (IP and immunoblot) [2]: decreased AKT Tyr/Ser-phosphorylations

B3: activated Ack1 (caAck, L487F mutant) (protein)
chain: MQPEEGTGWLLELLSEVQLQQYFLRLRDDLNVTRLSHFEYVKNEDLEKIGMGRPGQRRLWEAVKRRKALCKRKSWMSKVFSGKRLEAEFPPHHSQSTFRKTSPAPGGPAGEGPLQSLTCLIGEKDLRLLEKLGDGSFGVVRRGEWDAPSGKTVSVAVKCLKPDVLSQPEAMDDFIREVNAMHSLDHRNLIRLYGVVLTPPMKMVTELAPLGSLLDRLRKHQGHFLLGTLSRYAVQVAEGMGYLESKRFIHRDLAARNLLLATRDLVKIGDFGLMRALPQNDDHYVMQEHRKVPFAWCAPESLKTRTFSHASDTWMFGVTLWEMFTYGQEPWIGLNGSQILHKIDKEGERLPRPEDCPQDIYNVMVQCWAHKPEDRPTFVALRDFLLEAQPTDMRALQDFEEPDKLHIQMNDVITVIEGRAENYWWRGQNTRTLCVGPFPRNVVTSVAGLSAQDISQPLQNSFIHTGHGDSDPRHCWGFPDRIDELYFGNPMDPPDLLSVELSTSRPPQHLGGVKKPTYDPVSEDQDPLSSDFKRLGLRKPGLPRGLWLAKPSARVPGTKASRGSGAEVTLIDFGEEPVVPALRPCAPSLAQLAMDACSLLDETPPQSPTRALPRPLHPTPVVDWDARPLPPPPAYDDVAQDEDDFEICSINSTLVGAGVPAGPSQGQTNYAFVPEQARPPPPLEDNLFLPPQGGGKPPSSAQTAEIFQALQQECMRQLQAPAGSPAPSPSPGGDDKPQVPPRVPIPPRPTRPHVQLSPAPPGEEETSQWPGPASPPRVPPREPLSPQ
- Tyr-phosphorylation of AKT deletion constructs (IP with HA antibodies, immunoblot with pTyr antibodies) [3]: AKT deletion construct lacking the PH domain (ΔPH-AKT) exhibited significant decrease in Tyr-phosphorylation
